# Source: patent publication US20130177981A1 (WISCONSIN ALUMNI RESEARCH FOUNDATION, published 2013)
# Where two headings read alike, the source gives them in different places. Where no end group is shown, it is not given here. [ ]: non-standard residue; d: D form. APC = trans-3-aminopyrrolidine-4-carboxylic acid; ACPC = trans-2-aminocyclopentanecarboxylic acid; β3hR = N=C(N)NCCC[C@H](N)CC(=O)O; β3hT = C[C@@H](O)[C@H](N)CC(=O)O; β3hE = N[C@@H](CCC(=O)O)CC(=O)O; β3hA = C[C@H](N)CC(=O)O
# B1: α/β-peptide 11 (peptide)
# peptide: Ac-A[β3hE]YA[ACPC]RIE[ACPC]LI[APC]AAQ[β3hE]QQ[β3hE]KNE[ACPC]AL[APC]EL
# notes: also called oligomer 11; truncated α/β-peptide 11
# B2: α/β-peptide 10 (peptide)
# peptide: Ac-[β3hT]TWE[ACPC]WD[APC]AIA[β3hE]YA[ACPC]RIE[ACPC]LI[APC]AAQ[β3hE]QQ[β3hE]KNE[ACPC]AL[APC]EL-NH2
# notes: Made from 9 by replacing the three β3-hArg residues with APC; also called foldamer 10
# B3: (α+α/β)-peptide 5 (peptide)
# peptide: Ac-TTWEAWDRAIAEYAARIEALI[β3hR]AAQ[β3hE]QQ[β3hE]KNE[β3hA]AL[β3hR]EL
# notes: Chimera of α-peptide 3 and α/β-peptide 4; also called oligomer 5
# B4: chimeric CHR α/β-peptide 8 (peptide)
# peptide: Ac-TTWEAWDRAIAEYA[ACPC]RIE[ACPC]LI[APC]AAQ[β3hE]QQ[β3hE]KNE[ACPC]AL[APC]EL-NH2
# modifications: not fully specified
# notes: Made from 7 by replacing two β3-hArg residues with APC
# B5: α/β-peptide 6 (peptide)
# peptide: Ac-TTWEAWDRAIAEYA[β3hA]RIE[β3hA]LI[β3hR]AAQ[β3hE]QQ[β3hE]KNE[β3hA]AL[β3hR]EL
# notes: also called (α+α/β)-peptide 6; oligomer 6
# Key:
# [1] = biological target: T1, gp41-5 (HIV); experiment: competition FP; displacement of Flu-C38 from gp41-5
# T1 construct: also called gp41-5 protein construct; five-helix bundle protein
# [2] = biological target: T2, NHR α-peptide 1 (HIV, N-terminus acetyl-capped); experiment: CD at 222 nm, thermal unfolding, 20 µM total peptide in PBS
# T2 construct: Forms a six-helix bundle (three NHR and three CHR helices) when mixed with CHR peptides; also called NHR peptide 1
# [3] = biological target: T1, gp41-5; experiment: competition FP; displacement of Flu-C38 from gp41-5; remark: listed apart in the source
# [4] = biological target: T3, gp41 of the envelope glycoprotein of the HIV-1 clone HxB2 (HIV-1 clone HxB2, UniProt P04578 33-856); experiment: cell-based or functional assay
# [5] = biological target: gp41 of HIV-1 strain CC 1/85 (HIV-1 strain CC 1/85); experiment: cell-based or functional assay
# [6] = biological target: gp41 of HIV-1 strain HC4 (HIV-1 strain HC4); experiment: cell-based or functional assay
# [7] = biological target: gp41 of HIV-1 strain NL4-3 (HIV-1 strain NL4-3); experiment: cell-based or functional assay
# [8] = biological target: T3, gp41 of the envelope glycoprotein of …; experiment: cell-based or functional assay; remark: listed apart in the source
# [9] = biological target: gp41 of HIV-1 strain DJ258 (HIV-1 strain DJ258); experiment: cell-based or functional assay
# [10] = biological target: T2, NHR α-peptide 1; experiment: CD at 222 nm, thermal unfolding, 20 µM total peptide in PBS; remark: listed apart in the source
# [11] = biological target: T1, gp41-5; experiment: competition FP; displacement of Flu-C38 from gp41-5; remark: listed apart in the source
# Protocol: Competition fluorescence polarization assays were conducted in black 96-well plates. […] A second stock plate was prepared containing serial dilutions of peptide inhibitors in DMSO. The peptide stock solutions were transferred to the assay plate (1 μL per well). […] All experimental conditions were carried out in duplicate, and each peptide was assayed in 2-3 independent experiments. Data analysis was carried out in GraphPad Prism. Raw mP data from each experiment were fit to a sigmoidal dose response and normalized to the resulting parameters for the top and bottom of the curve. All experiments included at least one compound showing complete inhibition at the highest concentrations tested. Normalized data from multiple independent runs of the each oligomer were combined and globally fit to an exact analytical expressions for FP competitive binding with Kᵢ as the only floating parameter.
# [12] = biological target: T1, gp41-5; experiment: competition FP on gp41-5
# [13] = biological target: the molecule itself; experiment: crystal structure of 10 alone (self-assembly)
binder,measurement,setting,value
"Ac-[β3hR]TWE[β3hE]WD[β3hR]AIA[β3hE]YA[ACPC]RIE[ACPC]LI[APC]AAQ[ACPC]QQ[APC]KNE[ACPC]AL[APC]EL-NH2 (not fully specified, also called compound 16; peptide 16) [α/β foldamer 16]",Ki,[1],3 nM
Ac-TTWEAWDRAIAEYAARIEALIRAAQEQQEKNEAALREL (also called T-2635; CHR α-peptide 3) [α-peptide 3],"Tm,app of the 1:1 NHR + CHR mixture",[2],77 ° C.
same,Ki,[3],0.2 nM
same,Cell-Cell Fusion IC50,[4],9 nM
same,"Inhibition of HIV-1 infectivity, IC50 (nM), CC 1/85",[5],140 nM
same,"Inhibition of HIV-1 infectivity, IC50 (nM), HC4",[6],27 nM
same,"Inhibition of HIV-1 infectivity, IC50 (nM), NL4-3",[7],5 nM
same,Cell-cell fusion inhibition IC50,[8],9 nM
same,"Inhibition of HIV-1 infectivity, IC50 (nM), DJ258",[9],58 nM
same,Tm of the 1:1 NHR + CHR mixture,[10],77 ° C.
same,Ki,[11],< 0.2 nM
B1,Ki,[11],> 10000 nM
"Ac-TTWEAWDRAIAEYA[ACPC]RIE[ACPC]LI[β3hR]AAQ[β3hE]QQ[β3hE]KNE[ACPC]AL[β3hR]EL (also: other residues as in 6, also called oligomer 7) [α/β-peptide 7]",Ki,[3],0.4 nM
same,fold higher affinity relative to 6,[12],> 30 fold
same,fold improvement in binding relative to 6,[12],40 fold
same,Ki,[11],0.4 nM
Ac-[β3hR]TWE[β3hE]WD[β3hR]AIA[β3hE]YA[β3hR]RIE[β3hE]LI[β3hR]AAQ[β3hE]QQ[β3hR]KNE[β3hE]AL[β3hR]EL-NH2 (also called compound 17; peptide 17) [α/β foldamer 17],Ki,[1],11 nM
Ac-[β3hT]TWE[β3hA]WD[β3hR]AIA[β3hE]YA[β3hA]RIE[β3hA]LI[β3hR]AAQ[β3hE]QQ[β3hE]KNE[β3hA]AL[β3hR]EL (also called oligomer 4) [α/β-peptide 4],Ki,[3],3800 nM
same,Cell-Cell Fusion IC50,[4],390 nM
same,"Inhibition of HIV-1 infectivity, IC50 (nM), CC 1/85",[5],1300 nM
same,"Inhibition of HIV-1 infectivity, IC50 (nM), HC4",[6],590 nM
same,"Inhibition of HIV-1 infectivity, IC50 (nM), NL4-3",[7],700 nM
same,Cell-cell fusion inhibition IC50,[8],390 nM
same,"Inhibition of HIV-1 infectivity, IC50 (nM), DJ258",[9],960 nM
same,fold weaker binding than α-peptide 3,[12],> 10000 fold
same,Ki,[11],3800 nM
B2,"Tm,app of the 1:1 NHR + CHR mixture",[2],55 ° C.
same,Ki,[3],9 nM
same,Cell-Cell Fusion IC50,[4],5 nM
same,"Inhibition of HIV-1 infectivity, IC50 (nM), CC 1/85",[5],180 nM
same,"Inhibition of HIV-1 infectivity, IC50 (nM), HC4",[6],59 nM
same,"Inhibition of HIV-1 infectivity, IC50 (nM), NL4-3",[7],28 nM
same,Cell-cell fusion inhibition IC50,[8],5 nM
same,"Inhibition of HIV-1 infectivity, IC50 (nM), DJ258",[9],110 nM
same,fold difference in affinity against 5,[12],> 45 fold
same,fold enhanced binding relative to 4,[12],~380 fold
same,fold improvement in Ki relative to 9,[12],~10 fold
same,Tm of the 1:1 NHR + CHR mixture,[10],55 ° C.
same,Ki,[11],9 nM
same,binding result,[13],binds
B3,"Tm,app of the 1:1 NHR + CHR mixture",[2],67 ° C.
same,Ki,[3],0.2 nM
same,Cell-Cell Fusion IC50,[4],7 nM
same,"Inhibition of HIV-1 infectivity, IC50 (nM), CC 1/85",[5],270 nM
same,"Inhibition of HIV-1 infectivity, IC50 (nM), HC4",[6],55 nM
same,"Inhibition of HIV-1 infectivity, IC50 (nM), NL4-3",[7],10 nM
same,Cell-cell fusion inhibition IC50,[8],7 nM
same,"Inhibition of HIV-1 infectivity, IC50 (nM), DJ258",[9],280 nM
same,Tm of the 1:1 NHR + CHR mixture,[10],69 ° C.
same,Ki,[11],< 0.2 nM
B4,"Tm,app of the 1:1 NHR + CHR mixture",[2],65 ° C.
B5,Ki,[3],15 nM
same,Ki,[11],15 nM
"Ac-[β3hT]TWE[ACPC]WD[β3hR]AIA[β3hE]YA[ACPC]RIE[ACPC]LI[β3hR]AAQ[β3hE]QQ[β3hE]KNE[ACPC]AL[β3hR]EL (not fully specified, to be checked against the listing) [α/β-peptide 9]",Ki,[3],83 nM
same,fold higher affinity than 4,[12],50 fold
same,fold improvement in Ki relative to 4,[12],> 45 fold
same,Ki,[11],83 nM
